Data as given in paper PMC6874894.

System: CTCF
Test: EMSA

Substance | binding signal (% increase in binding vs G allele (N3)) | binding signal (% increase in binding vs G allele (N1))
230 bp probe rs150502618-A | 8 | 
50 bp probe rs150502618-A |  | 15
